# B1: MICU2-NΔ84-CΔ28 (domain or fragment, human, UniProt Q8IYU8 84-406, looked up)
# chain: SLRKQRFMQFSSLEHEGEYYMTPRDFLFSVMFEQMERKTSVKKLTKKDIEDTLSGIQTAGCGSTFFRDLGDKGLISYTEYLFLLTILTKPHSGFHVAFKMLDTDGNEMIEKREFFKLQKIISKQDDLMTVKTNETGYQEAIVKEPEINTTLQMRFFGKRGQRKLHYKEFRRFMENLQTEIQEMEFLQFSKGLSFMRKEDFAEWLLFFTNTENKDIYWKNVREKLSAGESISLDEFKSFCHFTTHLEDFAIAMQMFSLAHRPVRLAEFKRAVKVATGQELSNNILDTVFKIFDLDGDECLSHEEFLGVLKNRMHRGLWVPQHQS
# notes: human MICU2 (BC031089.1), N-terminal deletion starting at amino acid 84, the C-terminal 28 amino acids deleted; lacks Cys413; Predicted molecular weight ~40 kDa; source: E. coli BL21 (DE3); purified (Ni-NTA, SEC) for MALLS; in lysate (cells mixed and sonicated together) for the pull-down; not shown: His-tag, N-terminal, kept
# Target: the molecule itself
# Assay: SEC-MALS; Ca2+-bound condition (5 mM CaCl2); protein at 0.5-2.5 mg/ml, 200 µl injected, KW-G and KW-803 columns, 0.5 ml/min; monomer to dimer
protein,measurement,value
B1,stoichiometry N,2

# Source: paper PMC4958273, “Expression and preliminary characterization of human MICU2” (Biology Open, 2016)
